Blank lines part the entries; values can stand above or below the molecule they belong to.
How the values were obtained:
[1] = target: T1, CpgB (CCNA_01218), bacterial ceramide kinase (Caulobacter vibrioides, UniProt A0A0H3C600); experiment: NBD-ceramide kinase assay, TLC fluorescence imaging; format: biochemical; conditions: read-out: % inhibition at 300 nM
T1 construct: full-length gene, N-terminal His tag (pET28a NdeI/EcoRI), expressed in E. coli BL21(DE3), HisTrap purified, soluble; tag removal not mentioned
T1 sequence (A0A0H3C600 1-330): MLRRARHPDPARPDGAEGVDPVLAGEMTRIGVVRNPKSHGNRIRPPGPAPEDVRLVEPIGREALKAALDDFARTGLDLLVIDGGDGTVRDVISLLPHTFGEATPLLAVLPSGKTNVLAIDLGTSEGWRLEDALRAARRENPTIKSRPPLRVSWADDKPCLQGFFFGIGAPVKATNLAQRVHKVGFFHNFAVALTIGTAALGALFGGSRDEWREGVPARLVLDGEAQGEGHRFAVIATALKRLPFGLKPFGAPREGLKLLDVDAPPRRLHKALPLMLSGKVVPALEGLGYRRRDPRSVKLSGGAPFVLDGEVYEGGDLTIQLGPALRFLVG

[2] = substrate: Nc1ncnc2c1ncn2[C@@H]1O[C@H](COP(=O)(O)OP(=O)(O)OP(=O)(O)O)[C@@H](O)[C@H]1O; experiment: purified protein; conditions: 160 μM NBD-C6-ceramide fixed, 15 mM Mg2+, 20 mM Hepes pH 7.4, 30 °C
[3] = substrate: CCCCCCCCCCCCC/C=C/[C@@H](O)[C@H](CO)NC(=O)CCCCCNc1ccc([N+](=O)[O-])c2nonc12; experiment: NBD-ceramide kinase assay, TLC fluorescence imaging; format: biochemical, Caulobacter vibrioides; conditions: 1 mM ATP fixed, 15 mM Mg2+, 20 mM Hepes pH 7.4, 30 °C, labelled compound (fluorescent NBD)

inhibition at 0.3 µM [1]: 20 to 25%
Molecule: O=C(Nc1nc2ccc(NC(=O)C34CC5CC(CC(C5)C3)C4)cc2s1)c1ccccc1 [NVP-231]

B1: CpgB (CCNA_01218), bacterial ceramide kinase (Caulobacter vibrioides NA1000) (protein)
chain: T1 sequence (A0A0H3C600 1-330)
notes: full-length gene, N-terminal His tag (pET28a NdeI/EcoRI), expressed in E. coli BL21(DE3), HisTrap purified, soluble; tag removal not mentioned
Km [2]: 290 ± 70 µM | Km [3]: 19.2 ± 5.5 µM
